For 1 substance, increased acetylation in a distal region 2 kb downstream of the proximal promoter of the p21-LUC plasmid (in vitro chromatin immunoprecipitation with anti-acetyl-H4) and increased acetylation near the 3' p53 binding site of the p21-LUC plasmid (in vitro chromatin immunoprecipitation with anti-acetyl-H4) results are on record in patent publication US20030228627A1, “Assay for p53 function in cells” (priority 2002, published 2003).

The assay has as its target Full-length human histidine-tagged p300 (human) (UniProt Q09472). In words: cell-based or functional assay.

Chain of Full-length human histidine-tagged p300 (human) (Q09472 2-2414): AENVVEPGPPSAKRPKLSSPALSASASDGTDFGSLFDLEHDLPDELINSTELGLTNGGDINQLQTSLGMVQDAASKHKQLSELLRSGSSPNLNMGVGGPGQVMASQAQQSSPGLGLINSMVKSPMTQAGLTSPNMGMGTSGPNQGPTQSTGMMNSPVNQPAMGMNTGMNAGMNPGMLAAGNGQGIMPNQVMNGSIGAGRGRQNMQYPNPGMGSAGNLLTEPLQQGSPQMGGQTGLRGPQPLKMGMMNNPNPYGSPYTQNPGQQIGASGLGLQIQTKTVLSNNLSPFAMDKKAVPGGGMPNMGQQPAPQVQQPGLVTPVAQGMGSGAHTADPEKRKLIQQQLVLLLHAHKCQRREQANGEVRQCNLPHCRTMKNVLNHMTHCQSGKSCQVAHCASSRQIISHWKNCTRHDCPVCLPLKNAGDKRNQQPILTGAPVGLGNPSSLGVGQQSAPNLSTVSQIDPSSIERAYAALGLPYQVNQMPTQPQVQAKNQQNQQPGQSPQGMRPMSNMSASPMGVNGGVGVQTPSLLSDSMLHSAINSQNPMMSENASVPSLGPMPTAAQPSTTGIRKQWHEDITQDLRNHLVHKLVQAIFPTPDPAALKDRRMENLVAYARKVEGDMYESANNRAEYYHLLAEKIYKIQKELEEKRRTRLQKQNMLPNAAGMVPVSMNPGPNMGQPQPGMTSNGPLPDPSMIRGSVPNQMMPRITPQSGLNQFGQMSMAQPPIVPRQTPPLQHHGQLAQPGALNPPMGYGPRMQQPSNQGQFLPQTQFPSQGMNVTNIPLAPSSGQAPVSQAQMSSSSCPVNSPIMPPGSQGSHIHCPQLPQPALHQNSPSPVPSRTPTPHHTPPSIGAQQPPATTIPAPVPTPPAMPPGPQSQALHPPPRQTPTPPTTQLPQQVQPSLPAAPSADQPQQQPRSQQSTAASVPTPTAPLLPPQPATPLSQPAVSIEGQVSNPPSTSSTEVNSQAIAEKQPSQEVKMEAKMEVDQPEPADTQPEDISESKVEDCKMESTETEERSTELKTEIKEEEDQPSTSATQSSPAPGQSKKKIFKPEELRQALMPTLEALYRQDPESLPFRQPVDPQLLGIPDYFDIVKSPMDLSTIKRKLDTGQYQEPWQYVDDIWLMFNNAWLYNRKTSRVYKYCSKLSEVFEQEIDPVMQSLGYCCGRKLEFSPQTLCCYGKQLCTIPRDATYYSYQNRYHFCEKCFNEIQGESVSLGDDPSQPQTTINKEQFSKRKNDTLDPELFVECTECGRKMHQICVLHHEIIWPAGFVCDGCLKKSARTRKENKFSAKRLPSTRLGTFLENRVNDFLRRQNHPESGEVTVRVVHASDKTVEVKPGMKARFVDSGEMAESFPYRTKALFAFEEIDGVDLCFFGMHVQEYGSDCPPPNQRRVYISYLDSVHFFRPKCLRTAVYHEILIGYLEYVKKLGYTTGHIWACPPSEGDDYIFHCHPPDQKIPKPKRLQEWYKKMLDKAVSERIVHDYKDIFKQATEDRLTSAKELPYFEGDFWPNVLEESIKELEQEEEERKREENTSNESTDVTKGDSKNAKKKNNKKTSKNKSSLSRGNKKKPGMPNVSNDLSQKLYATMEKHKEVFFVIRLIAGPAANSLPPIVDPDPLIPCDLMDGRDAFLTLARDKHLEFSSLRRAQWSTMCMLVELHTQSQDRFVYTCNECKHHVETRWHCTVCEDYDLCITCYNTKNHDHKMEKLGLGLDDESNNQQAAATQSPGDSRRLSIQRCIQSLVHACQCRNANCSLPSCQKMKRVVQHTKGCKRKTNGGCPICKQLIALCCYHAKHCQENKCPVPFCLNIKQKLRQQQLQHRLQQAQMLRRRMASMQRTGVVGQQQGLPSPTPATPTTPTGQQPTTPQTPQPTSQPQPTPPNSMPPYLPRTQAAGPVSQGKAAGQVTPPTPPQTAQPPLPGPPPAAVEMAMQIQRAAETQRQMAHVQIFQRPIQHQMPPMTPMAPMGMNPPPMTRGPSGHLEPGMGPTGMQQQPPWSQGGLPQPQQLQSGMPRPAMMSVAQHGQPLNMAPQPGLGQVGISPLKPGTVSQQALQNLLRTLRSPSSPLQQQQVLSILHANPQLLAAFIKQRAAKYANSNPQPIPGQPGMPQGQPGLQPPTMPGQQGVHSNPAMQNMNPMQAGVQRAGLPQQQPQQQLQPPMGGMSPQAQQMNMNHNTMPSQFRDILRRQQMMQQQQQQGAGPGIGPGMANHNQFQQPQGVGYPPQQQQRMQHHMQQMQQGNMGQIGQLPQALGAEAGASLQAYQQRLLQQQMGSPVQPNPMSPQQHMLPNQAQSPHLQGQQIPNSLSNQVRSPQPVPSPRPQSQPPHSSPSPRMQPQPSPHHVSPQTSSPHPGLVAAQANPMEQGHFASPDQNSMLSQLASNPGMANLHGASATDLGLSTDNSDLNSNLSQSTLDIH

The substance “Full-length human Flag-tagged p53 (native, unacetylated) (from UniProt P04637 1-393)” returned an increased acetylation in a distal region 2 kb downstream of the proximal promoter of the p21-LUC plasmid (in vitro chromatin immunoprecipitation with anti-acetyl-H4) of 1.4 fold and an increased acetylation near the 3' p53 binding site of the p21-LUC plasmid (in vitro chromatin immunoprecipitation with anti-acetyl-H4) of 3.4 fold.
